According to article PMC2778355 (Biochemistry, 2009):

Columns and labels:
[1] = biological target: His-ZapA (E. coli) (UniProt P0ADS2); assay: composition-gradient static light scattering
[2] = biological target: His-ZapA (E. coli) (UniProt P0ADS2); assay: AUC
[3] = biological target: Escherichia coli FtsZ (E. coli) (UniProt P0A9A6); assay: co-sedimentation
[4] = biological target: ZapA (Escherichia coli) (UniProt P0ADS2); conditions: cited from earlier work
[5] = biological target: the molecule itself; assay: negative-stain electron microscopy

“His-ZapA (from UniProt P0ADS2 1-109) (natural protein)” showed a stoichiometry N [1] of 4 and a stoichiometry N [2] of 4.

For “ZapA (His tag removed by enterokinase digestion of His-ZapA) (from UniProt P0ADS2 1-109) (natural protein)”, the stoichiometry N [3] was 1.

For ZapA (from UniProt P0ADS2), the Kd [4] is listed as 0.32 µM.

B1: Escherichia coli FtsZ (natural protein)
chain: MFEPMELTNDAVIKVIGVGGGGGNAVEHMVRERIEGVEFFAVNTDAQALRKTAVGQTIQIGSGITKGLGAGANPEVGRNAADEDRDALRAALEGADMVFIAAGMGGGTGTGAAPVVAEVAKDLGILTVAVVTKPFNFEGKKRMAFAEQGITELSKHVDSLITIPNDKLLKVLGRGISLLDAFGAANDVLKGAVQGIAELITRPGLMNVDFADVRTVMSEMGYAMMGSGVASGEDRAEEAAEMAISSPLLEDIDLSGARGVLVNITAGFDLRLDEFETVGNTIRAFASDNATVVIGTSLDPDMNDELRVTVVATGIGMDKRPEITLVTNKQVQQPVMDRYQQHGMAPLTQEQKPVAKVVNDNAPQTAKEPDYLDIPAFLRKQAD
B1: binds [5].
